Experimental data as given in US20240018189A1 (PROTAGONIST THERAPEUTICS, published 2024).
Positions of bridges follow the written chain, without caps; N, C: chain ends. Non-standard residues stand in square brackets, D forms with d. Groups on a side chain read outwards from the residue. *: point of attachment. PEG12 = NCCOCCOCCOCCOCCOCCOCCOCCOCCOCCOCCOCCOCCC(=O)O; Phe(3,4-F2) = N[C@@H](Cc1ccc(F)c(F)c1)C(=O)O; Dip = N[C@H](C(=O)O)C(c1ccccc1)c1ccccc1; Palmitoyl = CCCCCCCCCCCCCCCC(=O)*; β3hF = N[C@H](CC(=O)O)Cc1ccccc1; Isovaleryl = CC(C)CC(=O)*; Dap = NC[C@H](N)C(=O)O; Npc = nipecotic acid; βAla = NCCC(=O)O

T1: human ferroportin (SLC40A1) fused in frame with GFP (human) (UniProt Q9NP59)
T1 sequence (looked up): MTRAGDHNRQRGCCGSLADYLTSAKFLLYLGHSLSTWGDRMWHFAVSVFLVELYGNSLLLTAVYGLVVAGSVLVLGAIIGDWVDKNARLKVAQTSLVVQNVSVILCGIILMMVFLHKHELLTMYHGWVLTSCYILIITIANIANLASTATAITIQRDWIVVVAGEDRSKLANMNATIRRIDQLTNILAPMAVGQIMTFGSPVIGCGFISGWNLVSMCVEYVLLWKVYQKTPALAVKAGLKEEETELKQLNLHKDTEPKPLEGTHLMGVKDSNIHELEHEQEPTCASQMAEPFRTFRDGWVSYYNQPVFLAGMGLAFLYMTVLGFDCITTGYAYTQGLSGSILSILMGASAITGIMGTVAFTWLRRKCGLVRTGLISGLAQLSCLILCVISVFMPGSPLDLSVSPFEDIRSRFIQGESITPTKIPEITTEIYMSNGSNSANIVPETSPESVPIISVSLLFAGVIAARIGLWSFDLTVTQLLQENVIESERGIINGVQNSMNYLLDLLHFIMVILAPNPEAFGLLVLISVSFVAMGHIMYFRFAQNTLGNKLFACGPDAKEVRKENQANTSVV

T2: human ferroportin (SLC40A1) fused in frame with GFP (human, UniProt Q9NP59 1-571)
T2 sequence (looked up): T1 sequence (looked up)

B1: Seq. No. 344 (peptide)
peptide: DTHXPCIKFKKX
modifications: N-term isovaleric acid; 4 Dpa; 8 (D)Lys; 10 Lys(PEG12_Palm); 11 (D)Lys; 12 Pen; C-term NH2
B2: Seq. No. 338 (peptide)
peptide: DTHXPCIKFKXC
modifications: N-term isovaleric acid; 4 Dpa; 8 (D)Lys; 10 Lys(PEG12 Palm); 11 bhLys; C-term NH2
B3: Seq. No. 345 (peptide)
peptide: DTHXPCIKXKKC
modifications: N-term isovaleric acid; 4 Dpa; 8 (D)Lys; 9 Dpa; 10 Lys(PEG12_Palm); 11 (D)Lys; C-term NH2
B4: Compd. ID 9 (peptide)
peptide: DTHXPCIKXKC
modifications: N-term isovaleric acid; 4 Dpa; 8 Lys[1Peg2-1Peg2-isoGlu-Behenic_Acid]; 9 bhPhe; 10 (D)Lys; C-term NH2

The binders below were run against T1, human ferroportin (SLC40A1) fused in frame with GFP (human) (assay: cell-based or functional assay).

Going from Isovaleryl-DTH[Dip]PCII[β3hF]K([PEG12-Palmitoyl])[dK]C-NH2 (disulfide 6-12 (inferred)) [Seq. No. 331] to B1, the IC50: FPN internalisation falls from 24 nM to 7.75 nM (3.1-fold).

Compared with B2, Isovaleryl-DTHFPCI[dK]FK([PEG12-Palmitoyl])CK-NH2 (disulfide 6-11 (inferred)) [Seq. No. 334] is 1.6-fold higher in IC50: FPN internalisation: 20.4 nM for the first, 32 nM for the second.

B3 and DTHXPCIKFKC (N-term isovaleric acid; 4 Dpa; 8 (D)Lys; 10 Lys(PEG12_Palm); C-term NH2) [Seq. No. 341] are within 1.5-fold of each other in IC50: FPN internalisation: 23 nM for the first, 22 nM for the second.

First: Isovaleryl-DTH[Dip]PCI[βAla][β3hF]K([PEG12-Palmitoyl])[dK]C-NH2 (disulfide 6-12 (inferred)) [Seq. No. 333]
Second: Isovaleryl-DTH[Dip]PCI[dA][β3hF]K([PEG12-Palmitoyl])[dK]C-NH2 (disulfide 6-12 (inferred)) [Seq. No. 332]
The IC50: FPN internalisation of the first is 1.5-fold lower: 7.16 nM for the first, 11 nM for the second.

First: Isovaleryl-DTH[Dip][Npc]CI[dK][Phe(3,4-F2)]K([PEG12-Palmitoyl])KC-NH2 (disulfide 6-12 (inferred)) [Seq. No. 346]
Second: DTHXPCIKFKXC (N-term isovaleric acid; 4 Dpa; 8 (D)Lys; 10 Lys(PEG12 Palm); 11 Dab; C-term NH2) [Seq. No. 339]
The IC50: FPN internalisation of the first is 3.7-fold lower: 6.16 nM for the first, 22.8 nM for the second.

Binder DTHXPCIKFKXC (N-term isovaleric acid; 4 Dpa; 8 (D)Lys; 10 Lys(PEG12_Palm); 11 Orn; C-term NH2) [Seq. No. 340] has an IC50: FPN internalisation of 26.9 nM.

Binder B4 has an FPN EC50 of 18.4 nM.

The binders below were run against T2, human ferroportin (SLC40A1) fused in … (assay: cell-based or functional assay).

Isovaleryl-DTH[Dip]PCI[Dap]([Dap-Palmitoyl])[β3hF]C-NH2 (disulfide 6-10 (inferred)) [Compd. ID 1] was tested, and the “FPN EC50” value was 2.54 nM.
